In the RNAGym collection of RNA variant scans (doi:10.1093/molbev/msab373):

B1: Azoarcus group I ribozyme (parent)
chain: GUGCCUUGCGCCGGGAAACCACGCAAGGGAUGGUGUCAAAUUCGGCGAAACCUAAGCGCCCGCCCGGGCGUAUGGCAACGCCGAGCCAAGCUUCGGCGCCUGCGCCGAUGAAGGUGUAGAGACUAGACGGCACCCACCUAAGGCAAACGCUAUGGUGAAGGCAUAGUCCAGGGAGUGGCGAAAGUCACACAAACCGG

Variants of: B1
Test: reverse-splicing fitness (ratio to wild type); higher = more active; in vitro selection; Mg2+ level not given
Method in brief: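 An in vitro group I ribozyme library with randomized positions was T7-transcribed and gel-purified. In triplicate, 10 pmol RNA in EPPS pH 7.5 was reacted with 50 pmoles of a 30-nt RNA substrate for 1 h at 37 °C across several added MgCl2 levels (1–48 mM), then stopped with EDTA. Products were reverse transcribed from a substrate-complementary primer, PCR-amplified and sequenced (HiSeq 4000). Fitness is a variant's read proportion after selection over that before, normalised to wild type.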

| Variant | reverse-splicing fitness |
| --- | --- |
| A111U A120G A145C C150U C169A | 0.0284 |
| A111U A120G A145C C150U C169U | 0.0397 |
| A111U A120G A145C C150U C169G | 0.0495 |
| A111U A120G A145G C150A C169U U176A | 0.0247 |
| A111U A120G A145G C150A C169U U176C | 0.024 |
| A111U A120G A145G C150A C169U U176G | 0.00606 |
| A111U A120C A145G C169A U176A | 0.019 |
| A111U A120C A145G C169A U176G | 0.0041 |
| A111U A120C A145G C169A U176C | 0.0215 |
| A111U A120G A145C C150A C169U U176A | 0.0208 |
| A111U A120G A145C C150A C169U U176C | 0.0114 |
| A111U A120G A145C C150A C169U U176G | 0.00521 |
| A111U A120C A145G C150G C169A U176C | 0.0123 |
| A111U A120C A145G C150G C169A U176A | 0.0117 |
| A111U A120C A145G C150G C169A U176G | 0.00732 |
| A111U A120C C150G C169G U176A | 0.00683 |
| A111U A120C C150G C169G U176G | 0.00508 |
| A111U A120C C150G C169G U176C | 0.00491 |
| A111U A120C A145G C169G U176A | 0.019 |
| A111U A120C A145G C169G U176C | 0.0229 |
| A111U A120C A145G C169G U176G | 0.00461 |

| Variant | reverse-splicing fitness |
| --- | --- |
| A111U A120C A145G C150U C169G U176A | 0.0125 |
| A111U A120C A145G C150U C169G U176G | 0.00528 |
| A111U A120C A145G C150U C169G U176C | 0.0168 |
| A111U A120G A145G C150A C169A | 0.0192 |
| A111U A120G A145G C150A C169G | 0.0343 |
| A111U A120G A145G C150A C169U | 0.028 |
| A111U A120G A145G C150U C169A U176G | 0.00525 |
| A111U A120G A145G C150U C169A U176C | 0.0274 |
| A111U A120G A145G C150U C169A U176A | 0.0224 |
| A111U A120C A145U C150U C169A U176C | 0.00725 |
| A111U A120C A145U C150U C169A U176A | 0.0134 |
| A111U A120C A145U C150U C169A U176G | 0.0056 |
| A111U A120C A145G C169U | 0.172 |
| A111U A120C A145G C169G | 0.0095 |
| A111U A120C A145G C169A | 0.0121 |
| A111U A120C A145G C150G C169A | 0.0087 |
| A111U A120C A145G C150G C169U | 0.0226 |
| A111U A120C A145G C150G C169G | 0.00738 |
| A111U A120C A145G C150A U176C | 0.0785 |
| A111U A120C A145G C150A U176G | 0.013 |
| A111U A120C A145G C150A U176A | 0.0518 |

| Variant | reverse-splicing fitness |
| --- | --- |
| A111U A120C C150U C169A U176C | 0.0126 |
| A111U A120C C150U C169A U176G | 0.00509 |
| A111U A120C C150U C169A U176A | 0.018 |
| A111U A120C A145U C150A C169U | 0.0213 |
| A111U A120C A145U C150A C169A | 0.00875 |
| A111U A120C A145U C150A C169G | 0.00755 |
| A111U A120C A145C U176A | 0.232 |
| A111U A120C A145C U176C | 0.243 |
| A111U A120C A145C U176G | 0.0498 |
| A111U A120C A145G C150U C169U | 0.148 |
| A111U A120C A145G C150U C169A | 0.0113 |
| A111U A120C A145G C150U C169G | 0.00992 |
| A111U A120C A145U C150A C169G U176A | 0.0112 |
| A111U A120C A145U C150A C169G U176G | 0.00518 |
| A111U A120C A145U C150A C169G U176C | 0.0106 |
| A111U A120C A145G C169U U176C | 0.046 |
| A111U A120C A145G C169U U176A | 0.0335 |
| A111U A120C A145G C169U U176G | 0.00517 |
| A111U A120C C150G C169U U176G | 0.00475 |
| A111U A120C C150G C169U U176C | 0.0162 |
| A111U A120C C150G C169U U176A | 0.00853 |

| Variant | reverse-splicing fitness |
| --- | --- |
| A111U A120G A145C C150U | 0.0388 |
| A111U A120G A145C C150G | 0.0213 |
| A111U A120G A145C C150A | 0.0115 |
| A111U A120C A145U C150G C169G U176G | 0.00491 |
| A111U A120C A145U C150G C169G U176C | 0.005 |
| A111U A120C A145U C150G C169G U176A | 0.00683 |
| A111U A120C A145G U176A | 0.246 |
| A111U A120C A145G U176G | 0.0419 |
| A111U A120C A145G U176C | 0.306 |
| A111U A120C A145G C150A C169U U176C | 0.022 |
| A111U A120C A145G C150A C169U U176A | 0.0208 |
| A111U A120C A145G C150A C169U U176G | 0.00691 |
| A111U A120G A145C C150A U176G | 0.00407 |
| A111U A120G A145C C150A U176A | 0.00785 |
| A111U A120G A145C C150A U176C | 0.0112 |
| A111U A120G A145G C150U C169G U176A | 0.0272 |
| A111U A120G A145G C150U C169G U176C | 0.0424 |
| A111U A120G A145G C150U C169G U176G | 0.00498 |
| A111U A120C A145U C150G C169A U176A | 0.00913 |
| A111U A120C A145U C150G C169A U176G | 0.00497 |
| A111U A120C A145U C150G C169A U176C | 0.00757 |
